In paper PMC7840946 (Nature Communications, 2021):

Biological target: PstS1 (Rv0934), recombinant, wild type (Mycobacterium tuberculosis H37Rv, UniProt P9WGU1)
Assay: SPR
Details: both partners purified

PstS1 (Rv0934), recombinant, wild type, sequence (P9WGU1 25-374): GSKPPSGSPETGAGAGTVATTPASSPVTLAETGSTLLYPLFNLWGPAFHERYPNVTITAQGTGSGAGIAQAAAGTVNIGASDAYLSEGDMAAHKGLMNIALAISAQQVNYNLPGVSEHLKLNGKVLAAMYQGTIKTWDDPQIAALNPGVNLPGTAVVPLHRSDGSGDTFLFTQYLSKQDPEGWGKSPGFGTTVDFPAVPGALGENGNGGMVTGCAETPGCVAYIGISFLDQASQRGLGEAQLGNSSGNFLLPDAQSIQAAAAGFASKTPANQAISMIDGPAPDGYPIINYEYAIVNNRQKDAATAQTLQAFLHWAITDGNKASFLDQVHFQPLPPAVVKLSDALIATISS

B1: p4-36gl, predicted germline version of mAb p4-36 (antibody, V domains shown)
VH: EVQLVESGGGLVQPGRSLRLSCTASGFTFGDYAMSWVRQAPGKGLEWVGFIRSKAYGGTTEYAASVKGRFTISRDDSKSIAYLQMNSLKTEDTAVYYCTGPRPYYDSSGYYPYYFDYWGQGTLVTVSS
VL: QSALTQPRSVSGSPGQSVTISCTGTSSDVGGYNYVSWYQQHPGKAPKLMIYDVSKRPSGVPDRFSGSKSGNTASLTISGLQAEDEADYYCCSYAGSYTYVVFGGGTKLTVL
notes: also called germline (gl) version of p4-36
  fold reduction in affinity against the mature p4-36: 4.7 fold
